Experimental data reported in patent publication US20250388683A1 (VETOQUINOL, published 2025).
Positions count from the first letter of the chain named. Values belong to the binder of their own block, whether it stands above or below them.

Target: canine IL-31RA expressed on HEK-Blue STAT3 canine IL-31R reporter cells (with canine OSMR) (canine)
Assay: cell-based or functional assay

Mean IC50 (nM) (n = 3), HEK-Blue cell-based SEAP assay: 0.38 nM
B5: 8D3-VH-Lv2/8D3-VL-Ev2 caninized antibody (antibody, V domains shown)
VH: EVTLQESGPGLVKPSQTLSLTCVASGFSIKSSFIHWLRQRPGRGLEWIGRIDPLQGATEYNPVFQGRLSITADTAKNQVSLQLSSMTTEDTAVYYCARYHYAQSHFDAWGQGTLVTVSS
VL: RIVMTQSPGSLAGSVGESVSINCKSSQSVTNDVTWYQQKPGEAPKVLIHYASQRYSGVPARFSGSGYGTDFTLTINNLQAEDVGDYFCQQDYASPFTFGQGTKLEIK

Mean IC50 (nM) (n = 3), HEK-Blue cell-based SEAP assay: 0.54 nM
B6: 8D3-VH-N/8D3-VL-Ev2 caninized antibody (antibody, V domains shown)
VH: B5 VH with R50Y, A57G, L68I, H100Y
VL: B5 VL

Mean IC50 (nM) (n = 3), HEK-Blue cell-based SEAP assay: 0.49 nM
B7: 8D3-VH-Lv2/8D3-VL-E caninized antibody (antibody, V domains shown)
VH: B5 VH
VL: B5 VL with G13V, Q38W, H49T, Q53I

Mean IC50 (nM) (n = 3), HEK-Blue cell-based SEAP assay: 0.44 nM
B8: 8D3-VH-N/8D3-VL-E caninized antibody (antibody, V domains shown)
VH: B5 VH with R50Y, A57G, L68I, H100Y
VL: B5 VL with G13V, Q38W, H49T, Q53I

Mean IC50 (nM) (n = 3), HEK-Blue cell-based SEAP assay: 0.41 nM
B9: 8D3-VH-Lv2/8D3-VL-G caninized antibody (antibody, V domains shown)
VH: B5 VH
VL: B5 VL with V33L, S56P

Mean IC50 (nM) (n = 3), HEK-Blue cell-based SEAP assay: 0.44 nM
B10: 8D3-clone7v2-VH/8D3-clone 7-VL caninized antibody (antibody, V domains shown)
VH: B5 VH with A57G, L68I, A75T, H100Y
VL: B5 VL with V15A, V33L, S56T, D85V, A93S

Mean IC50 (nM) (n = 3), HEK-Blue cell-based SEAP assay: 0.54 nM
B13: 8D3-VH-Lv2/8D3-VL-H caninized antibody (antibody, V domains shown)
VH: B5 VH
VL: B5 VL with V33L, H49T, S56T

Further lines, the binder ahead of its results:

B1: 8D3-VH-H/8D3-VL-Ev2 caninized antibody (antibody, V domains shown)
VH: B5 VH with S31D, L54A, N61D, P62A, V63N, L68I, V79A, H100Y, A102G, Q103A
VL: B5 VL
Mean IC50 (nM) (n = 3), HEK-Blue cell-based SEAP assay: 0.59 nM

B2: 8D3-VH-L/8D3-VL-G caninized antibody (antibody, V domains shown)
VH: B5 VH with L54A, Q55F, V63A, L68F, V79A, T91S, Q103A
VL: B5 VL with V33L, S56P
Mean IC50 (nM) (n = 3), HEK-Blue cell-based SEAP assay: 0.44 nM

B3: 8D3-VH-L/8D3-VL-Ev2 caninized antibody (antibody, V domains shown)
VH: B5 VH with L54A, Q55F, V63A, L68F, V79A, T91S, Q103A
VL: B5 VL
Mean IC50 (nM) (n = 3), HEK-Blue cell-based SEAP assay: 0.41 nM

B4: 8D3-VH-518/8D3-VL-Ev2 caninized antibody (antibody, V domains shown)
VH: VTLQESGPGLVKPSQTLSLTCVASGFSIKDSFIHWLRQRPGRGLEWIGYIDPLQGNTEYDPVFQGRLSITADTAKNQVSLQLSSMTTEDTAVYYCARYYYARSHFDAWGQGTLVTVSS
VL: B5 VL
Mean IC50 (nM) (n = 3), HEK-Blue cell-based SEAP assay: 0.57 nM

B11: 8D3-VH-518/8D3-VL-A caninized antibody (antibody, V domains shown)
VH: B4 VH
VL: B5 VL with V15A, S25A, A43R, Q53N, S56T, Y67S, L73F, A93S
Mean IC50 (nM) (n = 3), HEK-Blue cell-based SEAP assay: 0.54 nM

B12: 8D3-VH-518H/8D3-VL-A caninized antibody (antibody, V domains shown)
VH: B5 VH with R50Y, A57G, Q103T
VL: B5 VL with V15A, S25A, A43R, Q53N, S56T, Y67S, L73F, A93S
Mean IC50 (nM) (n = 3), HEK-Blue cell-based SEAP assay: 0.48 nM
